Laboratory results published in patent US20220218001A1, “REDOX ENZYMES IN ANIMAL FEED COMPOSITIONS” (Novozymes A/S, priority 2019, published 2022).
Blank lines part the entries; values can stand above or below the molecule they belong to.

Legend:
[1] = commercial SODs from Sigma set as specific activity reference; cited from earlier work
[2] = Gastric stability assay of SODs; assay type: in vitro ADME; conditions: 37° C., reference activity at pH7.0 without stress
Experimental: Gastric stability was assayed with artificial gastric juice as stress condition. 20 μl SOD with appropriate dilution was added into 180 μl stress buffer (100 mM NaCl, 0.0013M HCl at pH3.0). The stress buffer with pepsin was prepared by adding 1.11 mg/ml pepsin (from porcine gastric mucosa, P7000, Sigma, 474 U/mg). The mixture was incubated at 37° C. in thermomixer for 0, 15, 30, 45, 60, 90, and 120 minutes separately. 10 μl sample extracted from the mixture was added into 90 μl activity buffer (K2HPO4/KH2PO4 mixed with final concentration of 100 mM PBS at pH7.0) as stop mixture. Then 20 μl stop mixture was added into 200 μl WST solution (or CytoC solution at pH7.8), and finally 20 μl coupled enzyme solution from kit was added to measure absorbance. The absorbance was measured at 450 nm for Sigma SOD kit (or 550 nm at pH 7.8) for 20 minutes at 37° C. (interval 40 sec, shake before first read). The activity at pH7.0 without stress condition was set as reference, and the residual activity at stress condition (pH3.0, pH3.0+pepsin) compared with reference was calculated as relative stability.

[3] = test system: genes related to oxidative stress; assay: Oxidative stress PCR array in duodenum and ileum of weaned piglets; assay type: in vivo; conditions: duodenum, day 42, vs control group, p=0.019
Experimental: The objective of this study was to evaluate anti-oxidant enzymes supplementation (SOD and CAT) alone and in combination in early weaned piglets, and if these enzymes can potentially alleviate the oxidative stress impact on weaned piglets and consequently improve the growth performance. In the in vivo trial (example 3), plasma samples were collected at day 0 (baseline, weaning moment), day 14 and day 42 of the study for additional analysis. […]
Total RNA was extracted from tissues (stored at −20° C. in RNA later) by lysing tissue with FastPrep® 24 (MP Biomedicals, Illkirch, France), using the phenol-chloroform method (TRIzol reagent; Invitrogen, Invitrogen, Cergy Pontoise, France) followed by purification using RNeasy columns by automated method with the Qiacube HT (Qiagen, Courtaboeuf, France). The concentration of RNA was measured by NanoDrop ND-1000 Spectrophotometer (Thermo Fisher Scientific, Illkirch, France) and the purity was estimated by A260/A280 ratio. RNA integrity was assessed by using the Agilent 2100 Bioanalyzer (Agilent Technologies, Basel, Switzerland). The threshold of the RNA Integrity Number (RIN) was set at 7.5 to validate sufficient quality of the RNAs. […]
(§1) ANOVA was performed for plasmatic parameters and student test was calculated to evaluate the significance of the differences observed in gene expression.

[4] = test system: reactive oxygen metabolites (ROM) and Plasma antioxidant capability (PAT); assay: Oxidative stress index FRAS5 (d-ROM, PAT) in plasma; assay type: in vivo, piglets; conditions: piglet plasma
Experimental: An oxidative stress index was calculated as the ratio of reactive oxygen metabolites (ROM) and Plasma antioxidant capability (PAT) determined in plasma and liver lysate samples. ROM and
PAT were analyzed using commercially methods (d-ROM fast test and PAT test) on FRAS5 instrument (Innovatics Laboratory, Philadelphia, USA). For d-ROM test, 10 μL of sample was mixed with an acidic buffer. Then, a chromogen was added, and measured photometrically at 505 nm. The results are expressed in UCarr (1 UCarr=0.08 mg of H2O2/dl). For PAT test, 10 μl of sample was added in a colored solution (mix of source ferric ions and chromogen). The intensity of chromatic change was measured at 505 nm. The results are expressed in UCor (1 UCor=1.4 μM of Vitamin C equivalent). The oxidative stress index was calculated as the ratio of d-ROMs test value to PAT test value.
as §1

[5] = test system: Glutathione peroxidase; assay: Plasma GPx activity (GPx determination KIT); assay type: in vivo; conditions: piglets, day 42
Experimental: The concentration of total proteins was determined in liver lysate and plasma, using the Pierce™ BCA Protein Assay Kit (Thermo Fisher Scientific, Illkirch-Graffenstaden, France). The samples were processed following the supplier's recommendations. Plasma samples were diluted 100 times. 25 μL of standards or samples were added to 200 μL of working reagent and incubated 30 minutes at 37° C. The colorimetric intensity was measured at 562 nm. Results are expressed in μg of total protein per mL of sample.
The activity of the Glutathione peroxidase was determined using the GPx determination KIT (abcamab102530). Briefly, 40 μL of the colorimetric reaction mix was added to 100 μL of standards and 10 μL of cumene hydroperoxide was added to the standards and to the 50 μL of samples (Plasma samples were adjusted to bring 600 μg of total protein in the reaction). The absorbance at 340 nm was measured (A1), and after 5 min at 25° C., a second measurement was done (A2).
The GPx activity was calculated as follow:
B=NADPH amount that was decreased between T1 and T2 (in nmol).
T1=Time of the first reading (A1) (minutes).
T2=Time of second reading (A2) (minutes).
V=Pretreated sample volume added into the reaction well (mL).
D=Sample dilution factor.
as §1

[6] = Nutritional model in piglets: growth performance (FCR); assay type: in vivo; conditions: d 0-42, piglets, vs NC (22% CP)
Experimental: Experimental Unit: Slatted Floor Pens, 4 piglets per pen (2 barrows & 2 gilts per pen)
Feed Type: Starter (Day 0-21) and Grower (Day 21-42). MASH feed is employed, using a corn-soybean type commercial ration formulation with an increase of 5-6% crude protein compared to normal commercial rations. Test material is added to the feed beginning on Day 0 and continuing through Day 42.
Replication/piglets per treatment: Treatments 1-8 fed to 12 replicates each of 4 piglets (2 barrows+2 gilts) per replicate.
Piglet Source: Piglets (post-weaned, at 21 days of age, called Day 0) are collected in early am (day of placement or Day 0), weighed (2 barrows & 2 gilts per pen), and assigned to each experimental pen. Each piglet is weighed individually and assigned to a pen, with very high and very low body weights excluded from the study. After all piglets are assigned to a pen, the body weights are checked to ensure no treatment is more than 1 standard deviation from another treatment.

Molecule: r E. coli: commercial Sigma SOD; probably recombinant SOD bovine expressed in Escherichia coli (S9697)
- SOD specific activity (reference) [1]: 6108 U/mg EP
- Gastric stability: pH 3, +pepsin 15 min - residual activity value % ([2]; 15 min): 43%
- Gastric stability: pH 3, +pepsin 30 min - residual activity value % ([2]; 30 min): 43%

- plasma GPx activity [5]: significant increase
B1: CAT: catalase feed enzyme: SEQ ID NO 7 in Examples 1-2; in Example 4 probably treatment 6 (Product C, SEQ ID NO 250) (protein)
chain: MRHFWLLPAVAGIAGAQCPYLSGEMSFTQEQDNAGDTIEVTEQTIDNTLYVNDTGSYMTTDFGTPISDQYSLKAGRRGPTLLEDFIFRQKLQRFDHERVPERVVHARGAGAYGTFKSYADWSNVTAADFLSANEKETPMFCRFSTVVGFRGSVDTARDVHGHACRFYTDEGNYDIVGINFAPFFIQDAIQFPDLVHAIKPMPNNEIPQAATAHTSAWDFFSQQSTALHSALWLMSGNGIPRSFRHMNGYGVHSFRFVAANGTSKVVRYRWKSQQGVASLVWEEAQAAAGKNSDYHRQDLYNAIANGHYPKYELQAQIMDEADMLRFGFDLLDPTKLVPEEVVPYTPLGMMELNANPTNYFAEVEQAGFQPGHVVPGIDFTDDPLLQGRLFSYLDTQLTRHGGPNFEQIPVNRPRKPVHNNNRDGFGQQQIPTNNWAYTPNTMSNGYPMQANQTHGHGFFTSPYRYASGHLIREPSPTFHDHWSQPAMFWNSLIPAEQQMVVNAIVFENSKVNSPHVRKNVVNQLNMVNNNLAVRVARGLGLDEPSPNPTYYTSNKTSNVGTFGKPLLSIEGLQVGFLASNSHPESIKQGQAMAAQFSAAGVDLNIVTEAYADGVNTTYALSDAIDFDALIIADGVQSLFASPSLANQMNSTATSTLYPPARPYQILVDSFRYGKPVAAVGSGSAALKNAGIDTSRSGVYTGSSETTENIAKEVLKGLYTFRFVDRFALDE
modifications: Aspergillus niger; mat_peptide (1)..(740)
- GPX1 gene fold change [3]: 1.34
- reactive oxygen metabolites (d-ROM) ([4]; both time point (day 14 and 42)): increase
- plasmatic antioxidant capacity (PAT) ([4]; day 14, p<0.0001 between groups): increase
- FCR [6]: significantly better than NC
